Publication PMC4434323

Experiments:
[1] = molecular target: T1, odr-7 (T18D3.2) (Caenorhabditis elegans) (UniProt P41933)
T1 sequence: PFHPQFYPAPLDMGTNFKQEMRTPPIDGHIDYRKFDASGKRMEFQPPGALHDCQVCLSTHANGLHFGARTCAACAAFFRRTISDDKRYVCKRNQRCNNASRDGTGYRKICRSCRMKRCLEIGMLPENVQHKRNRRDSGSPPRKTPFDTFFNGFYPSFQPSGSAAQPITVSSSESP

[2] = molecular target: T2, nhr-142 (F44E7.8) (Caenorhabditis elegans) (UniProt J7SF93)
T2 sequence: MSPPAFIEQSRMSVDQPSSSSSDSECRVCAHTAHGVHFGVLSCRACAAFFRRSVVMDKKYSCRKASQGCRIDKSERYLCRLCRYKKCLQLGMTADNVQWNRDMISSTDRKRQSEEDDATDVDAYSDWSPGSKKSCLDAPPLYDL

[3] = molecular target: T3, nhr-232 (Y22F5A.1) (Caenorhabditis elegans) (UniProt A0A486WVR6)
T3 sequence: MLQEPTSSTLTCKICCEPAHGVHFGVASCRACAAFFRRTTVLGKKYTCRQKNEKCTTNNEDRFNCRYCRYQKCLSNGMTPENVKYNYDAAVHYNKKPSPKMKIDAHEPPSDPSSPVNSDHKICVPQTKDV

[4] = molecular target: T4, nhr-66 (T09A12.4) (Caenorhabditis elegans) (UniProt H2KYJ8)
T4 sequence: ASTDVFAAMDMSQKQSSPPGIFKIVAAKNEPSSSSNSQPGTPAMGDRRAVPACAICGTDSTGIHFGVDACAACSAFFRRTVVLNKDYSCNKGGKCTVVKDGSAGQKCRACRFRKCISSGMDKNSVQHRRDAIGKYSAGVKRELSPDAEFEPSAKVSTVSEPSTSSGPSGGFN

[5] = molecular target: T5, nhr-70 (Y51A2D.17) (Caenorhabditis elegans) (UniProt G5EEL3)
T5 sequence: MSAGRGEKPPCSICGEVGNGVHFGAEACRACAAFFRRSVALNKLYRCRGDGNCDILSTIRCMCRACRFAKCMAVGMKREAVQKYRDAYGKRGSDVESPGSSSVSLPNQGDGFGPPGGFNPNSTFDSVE

[6] = molecular target: T6, mbr-1 (T01C1.2) (Caenorhabditis elegans) (UniProt G5EGQ5)
T6 sequence: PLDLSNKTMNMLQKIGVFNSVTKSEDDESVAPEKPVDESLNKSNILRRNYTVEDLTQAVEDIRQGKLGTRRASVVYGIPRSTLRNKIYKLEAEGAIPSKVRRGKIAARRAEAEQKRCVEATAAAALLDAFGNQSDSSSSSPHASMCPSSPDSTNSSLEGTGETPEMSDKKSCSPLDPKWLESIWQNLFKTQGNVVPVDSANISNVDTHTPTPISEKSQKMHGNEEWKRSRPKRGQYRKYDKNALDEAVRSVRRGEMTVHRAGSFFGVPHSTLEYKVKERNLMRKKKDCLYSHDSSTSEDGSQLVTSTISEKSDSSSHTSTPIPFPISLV

[7] = tested on: T7, nhr-216 (T09D3.4) (Caenorhabditis elegans)
T7 sequence: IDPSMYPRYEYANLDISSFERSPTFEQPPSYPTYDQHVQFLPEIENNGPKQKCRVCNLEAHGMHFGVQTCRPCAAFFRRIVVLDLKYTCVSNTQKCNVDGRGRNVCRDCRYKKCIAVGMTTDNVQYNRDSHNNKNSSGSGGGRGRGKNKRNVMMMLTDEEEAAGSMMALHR

[8] = molecular target: T8, nhr-42 (C33G8.6) (Caenorhabditis elegans) (UniProt O76828)
T8 sequence: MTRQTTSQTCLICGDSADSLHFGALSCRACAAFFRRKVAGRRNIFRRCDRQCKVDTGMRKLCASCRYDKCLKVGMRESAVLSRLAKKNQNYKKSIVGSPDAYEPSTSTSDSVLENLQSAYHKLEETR

“ATTGTAGC (double strand) [8-mer ATTGTAGC]” gave a binding signal (PBM E-score (-0.5 to 0.5)) [1] of 0.487.
For “ATTGTGAC (double strand) [8-mer ATTGTGAC]”, the binding signal (PBM E-score (-0.5 to 0.5)) [2] was 0.494 and the binding signal (PBM E-score (-0.5 to 0.5)) [3] was 0.489.
Work on “ATTTGTAG (double strand) [8-mer ATTTGTAG]” yielded a binding signal (PBM E-score (-0.5 to 0.5)) [1] of 0.479.
“CAACTACA (double strand) [8-mer CAACTACA]” was tested, and the binding signal (PBM E-score (-0.5 to 0.5)) [4] was 0.484.
Sequence “CGACTACA (double strand) [8-mer CGACTACA]” has a binding signal (PBM E-score (-0.5 to 0.5)) [5] of 0.487.
For “CGGCTACA (double strand) [8-mer CGGCTACA]”, the binding signal (PBM E-score (-0.5 to 0.5)) [5] was 0.488.
“CGGGGGGC (double strand) [8-mer CGGGGGGC]” was tested, and the binding signal (PBM E-score (-0.5 to 0.5)) [6] was 0.487.
“CGTCAGAA (double strand) [8-mer CGTCAGAA]” gave a binding signal (PBM E-score (-0.5 to 0.5)) [7] of 0.493.
“CTACAATC (double strand) [8-mer CTACAATC]” gave a binding signal (PBM E-score (-0.5 to 0.5)) [1] of 0.466.
Sequence “CTTCTGAC (double strand) [8-mer CTTCTGAC]” has a binding signal (PBM E-score (-0.5 to 0.5)) [7] of 0.498.
With “GACACAAA (double strand) [8-mer GACACAAA]” the binding signal (PBM E-score (-0.5 to 0.5)) [3] was 0.475.
Sequence “GACTACAC (double strand) [8-mer GACTACAC]” has a binding signal (PBM E-score (-0.5 to 0.5)) [4] of 0.484 and a binding signal (PBM E-score (-0.5 to 0.5)) [5] of 0.49.
“GATCAGAA (double strand) [8-mer GATCAGAA]” was tested, and the binding signal (PBM E-score (-0.5 to 0.5)) [7] was 0.497.
Work on “GCTACAAA (double strand) [8-mer GCTACAAA]” yielded a binding signal (PBM E-score (-0.5 to 0.5)) [4] of 0.482, a binding signal (PBM E-score (-0.5 to 0.5)) [1] of 0.462 and a binding signal (PBM E-score (-0.5 to 0.5)) [5] of 0.489.
In the case of “GCTACAAC (double strand) [8-mer GCTACAAC]”, the binding signal (PBM E-score (-0.5 to 0.5)) [5] is reported as 0.483.
“GGACACAA (double strand) [8-mer GGACACAA]” gave a binding signal (PBM E-score (-0.5 to 0.5)) [2] of 0.493 and a binding signal (PBM E-score (-0.5 to 0.5)) [3] of 0.473.
“GGACAGAA (double strand) [8-mer GGACAGAA]” was tested, and the binding signal (PBM E-score (-0.5 to 0.5)) [7] was 0.493.
In the case of “GGCTACAA (double strand) [8-mer GGCTACAA]”, the binding signal (PBM E-score (-0.5 to 0.5)) [1] is reported as 0.467 and the binding signal (PBM E-score (-0.5 to 0.5)) [5] is reported as 0.492.
For “GGCTACAC (double strand) [8-mer GGCTACAC]”, the binding signal (PBM E-score (-0.5 to 0.5)) [5] was 0.487.
Work on “GGTCACAA (double strand) [8-mer GGTCACAA]” yielded a binding signal (PBM E-score (-0.5 to 0.5)) [2] of 0.495 and a binding signal (PBM E-score (-0.5 to 0.5)) [3] of 0.485.
In the case of “GGTCAGAA (double strand) [8-mer GGTCAGAA]”, the binding signal (PBM E-score (-0.5 to 0.5)) [7] is reported as 0.498.
Sequence “GTCACAAA (double strand) [8-mer GTCACAAA]” has a binding signal (PBM E-score (-0.5 to 0.5)) [2] of 0.498, a binding signal (PBM E-score (-0.5 to 0.5)) [3] of 0.497 and a binding signal (PBM E-score (-0.5 to 0.5)) [8] of 0.48.
In the case of “GTCACACA (double strand) [8-mer GTCACACA]”, the binding signal (PBM E-score (-0.5 to 0.5)) [3] is reported as 0.46.
“GTCAGAAA (double strand) [8-mer GTCAGAAA]” was tested, and the binding signal (PBM E-score (-0.5 to 0.5)) [7] was 0.496.
“GTCAGAAC (double strand) [8-mer GTCAGAAC]” was tested, and the binding signal (PBM E-score (-0.5 to 0.5)) [7] was 0.498.
Sequence “TACAAATA (double strand) [8-mer TACAAATA]” has a binding signal (PBM E-score (-0.5 to 0.5)) [1] of 0.461.
“TACTACAA (double strand) [8-mer TACTACAA]” gave a binding signal (PBM E-score (-0.5 to 0.5)) [1] of 0.474.
In the case of “TAGTCACA (double strand) [8-mer TAGTCACA]”, the binding signal (PBM E-score (-0.5 to 0.5)) [2] is reported as 0.493, the binding signal (PBM E-score (-0.5 to 0.5)) [3] is reported as 0.482 and the binding signal (PBM E-score (-0.5 to 0.5)) [8] is reported as 0.494.
“TCTGACCA (double strand) [8-mer TCTGACCA]” was tested, and the binding signal (PBM E-score (-0.5 to 0.5)) [7] was 0.491.
With “TGACTACA (double strand) [8-mer TGACTACA]” the binding signal (PBM E-score (-0.5 to 0.5)) [5] was 0.491.
“TGGCTACA (double strand) [8-mer TGGCTACA]” gave a binding signal (PBM E-score (-0.5 to 0.5)) [5] of 0.48.
In the case of “TGTCACAA (double strand) [8-mer TGTCACAA]”, the binding signal (PBM E-score (-0.5 to 0.5)) [2] is reported as 0.49 and the binding signal (PBM E-score (-0.5 to 0.5)) [3] is reported as 0.474.
For “TGTCAGAA (double strand) [8-mer TGTCAGAA]”, the binding signal (PBM E-score (-0.5 to 0.5)) [7] was 0.496.
